# Patent US20190099470A1 (UNIVERSITY OF VERMONT AND STATE AGRICULTURAL COLLEGE, published 2019)
# B1: Mouse MAVS, endogenous, on mitochondria of wild-type MEFs and BMDCs (other, UniProt Q8VCF0 1-503, looked up)
# chain: MTFAEDKTYKYIRDNHSKFCCVDVLEILPYLSCLTASDQDRLRASYRQIGNRDTLWGLFNNLQRRPGWVEVFIRALQICELPGLADQVTRVYQSYLPPGTSLRSLEPLQLPDFPAAVSGPSAFAPGHNIPDHGLRETPSCPKPVQDTQPPESPVENSEQLLQTNSGAVARMSGGSLIPSPNQQALSPQPSREHQEQEPELGGAHAANVASVPIATYGPVSPTVSFQPLPRTALRTNLLSGVTVSALSADTSLSSSSTGSAFAKGAGDQAKAATCFSTTLTNSVTTSSVPSPRLVPVKTMSSKLPLSSKSTAAMTSTVLTNTAPSKLPSNSVYAGTVPSRVPASVAKAPANTIPPERNSKQAKETPEGPATKVTTGGNQTGPNSSIRSLHSGPEMSKPGVLVSQLDEPFSACSVDLAISPSSSLVSEPNHGPEENEYSSFRIQVDESPSADLLGSPEPLATQQPQEEEEHCASSMPWAKWLGATSALLAVFLAVMLYRSRRLAQ
# notes: Endogenous full protein on the outer mitochondrial membrane of mouse cells; also called MAVS-WT (MEF); endogenous MAVS
# B2: His-tagged human MAVS-C79F expressed in MAVS-deficient MEFs (other, not shown: small tags and cut ends)
# chain: MPFAEDKTYKYICRNFSNFCNVDVVEILPYLPCLTARDQDRLRATCTLSGNRDTLWHLFNTLQRRPGWVEYFIAALRGFELVDLADEVASVYQSYQPRTSDRPPDPLEPPSLPAERPGPPTPAAAHSIPYNSCREKEPSYPMPVQETQAPESPGENSEQALQTLSPRAIPRNPDGGPLESSSDLAALSPLTSSGHQEQDTELGSTHTAGATSSLTPSRGPVSPSVSFQPLARSTPRASRLPGPTGSVVSTGTSFSSSSPGLASAGAAEGKQGAESDQAEPIICSSGAEAPANSLPSKVPTTLMPVNTVALKVPANPASVSTVPSKLPTSSKPPGAVPSNALTNPAPSKLPINSTRAGMVPSKVPTSMVLTKVSASTVPTDGSSRNEETPAAPTPAGATGGSSAWLDSSSENRGLGSELSKPGVLASQVDSPFSGCFEDLAISASTSLGMGPCHGPEENEYKSEGTFGIHVAENPSIQLLEGNPGPPADPDGGPRPQADRKFQEREVPCHRPSPGALWLQVAVTGVLVVTLLVVLYRRRLH
# notes: Expressed from vector pIRES in MAVS-KO MEFs; also called C79F variant; MAVS-C79F SNP
# B3: Homo sapiens mitochondrial antiviral signaling protein (MAVS), endogenous wild-type, as oligomers in human PBMC and in plasma of SLE patients (other)
# chain: PFAEDKTYKYICRNFSNFCNVDVVEILPYLPCLTARDQDRLRATCTLSGNRDTLWHLFNTLQRRPGWVEYFIAALRGCELVDLADEVASVYQSYQPRTSDRPPDPLEPPSLPAERPGPPTPAAAHSIPYNSCREKEPSYPMPVQETQAPESPGENSEQALQTLSPRAIPRNPDGGPLESSSDLAALSPLTSSGHQEQDTELGSTHTAGATSSLTPSRGPVSPSVSFQPLARSTPRASRLPGPTGSVVSTGTSFSSSSPGLASAGAAEGKQGAESDQAEPIICSSGAEAPANSLPSKVPTTLMPVNTVALKVPANPASVSTVPSKLPTSSKPPGAVPSNALTNPAPSKLPINSTRAGMVPSKVPTSMVLTKVSASTVPTDGSSRNEETPAAPTPAGATGGSSAWLDSSSENRGLGSELSKPGVLASQVDSPFSGCFEDLAISASTSLGMGPCHGPEENEYKSEGTFGIHVAENPSIQLLEGNPGPPADPDGGPRPQADRKFQEREVPCHRPSPGALWLQVAVTGVLVVTLLVVLYRRRLH
# notes: Endogenous protein from donors; In some experiments labelled with Alx488 or Alx546; also called MAVS-WT; SLE MAVS oligomers
# Assays:
# [1] = target: B3; assay: purified plasma oligomers incubated with purified mitochondria of MAVS-WT MEFs, mitochondria re-purified; immunoblot
# [2] = target: the molecule itself; assay: self-oligomerization in reconstituted MAVS-KO MEFs; semi-denaturing TGX gel and immunoblot
# [3] = target: the molecule itself; assay: self-oligomerization in human PBMC from healthy donors; semi-denaturing agarose gel and immunoblot
# [4] = target: T1, His-tagged human MAVS-WT expressed in MAVS-deficient MEFs (human, UniProt Q7Z434 1-540, limits assumed); assay: plasma oligomers incubated with mitochondria of MAVS-KO MEFs expressing His-tagged human MAVS-WT; anti-His immunoblot
# T1 construct: also called His-tagged human WT MAVS; not shown: N-terminal His-tag
# [5] = target: B2; assay: plasma oligomers incubated with mitochondria of MAVS-KO MEFs expressing His-tagged human MAVS-C79F; anti-His immunoblot
binder,measurement,setting,value
B1,binding result,[1],binds
B2,binding result,[2],binds
B3,binding result,[3],binds
same,binding result,[4],binds
same,binding result,[5],binds
